# In the supplement of paper PMC9233669:
# Variants at the floor of the assay were thinned out.
# Columns and labels:
# [1] = tested on: biotinyl-Phe-oxazolone; test: self-aminoacylation, catalytic enhancement (BFO) (fold over background); higher = more active; k-Seq, kA / k0A0; sequences stand for … in GGGAAUGGAUCCACAUCUACGAAUUC…UUCACUGCAGACUUGACGAAGCUG
# Method in brief: (§1)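 Working in 50 μL HEPES/NaCl/KCl/MgCl2/CaCl2 buffer with 5% acetonitrile at pH 6.9–7.0, mutagenized RNA pools (0.43 μM; 21-nt variable region) were reacted with 2–1250 μM of each biotinyl-aminoacyl-oxazolone for 90 minutes at room temperature. Streptavidin capture followed, with quantification by triplicate qPCR and Illumina sequencing. Catalytic enhancement is reported as median kA over the uncatalyzed rate, the low-activity peak of a bimodal Gaussian fit to the data.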
# [2] = tested on: biotinyl-Ile-oxazolone; test: self-aminoacylation, catalytic enhancement (BIO) (fold over background); higher = more active; k-Seq, kA / k0A0; sequences stand for … in GGGAAUGGAUCCACAUCUACGAAUUC…UUCACUGCAGACUUGACGAAGCUG
# Method in brief: as §1
# [3] = tested on: biotinyl-Met-oxazolone; test: self-aminoacylation, catalytic enhancement (BMO) (fold over background); higher = more active; k-Seq, kA / k0A0; sequences stand for … in GGGAAUGGAUCCACAUCUACGAAUUC…UUCACUGCAGACUUGACGAAGCUG
# Method in brief: as §1
# [4] = tested on: biotinyl-Val-oxazolone; test: self-aminoacylation, catalytic enhancement (BVO) (fold over background); higher = more active; k-Seq, kA / k0A0; sequences stand for … in GGGAAUGGAUCCACAUCUACGAAUUC…UUCACUGCAGACUUGACGAAGCUG
# Method in brief: as §1
# [5] = tested on: biotinyl-Leu-oxazolone; test: self-aminoacylation, catalytic enhancement (BLO) (fold over background); higher = more active; k-Seq, kA / k0A0; sequences stand for … in GGGAAUGGAUCCACAUCUACGAAUUC…UUCACUGCAGACUUGACGAAGCUG
# Method in brief: as §1
# [6] = tested on: biotinyl-Trp-oxazolone; test: self-aminoacylation, catalytic enhancement (BWO) (fold over background); higher = more active; k-Seq, kA / k0A0; sequences stand for … in GGGAAUGGAUCCACAUCUACGAAUUC…UUCACUGCAGACUUGACGAAGCUG
# Method in brief: as §1
Sequence,self-aminoacylation [1],self-aminoacylation [2],self-aminoacylation [3],self-aminoacylation [4],self-aminoacylation [5],self-aminoacylation [6]
ACUACCCUGGUCAUCUAGUGA [Fam2.1 aminoacylation ribozyme variant],63.1,3.86,7.5,3.97,7.72,7.62
CCGCACUUCAAGCAAUCGUUC [Fam1B.1 aminoacylation ribozyme variant],1.26,0.8,0.742,0.944,0.688,0.659
AUUAACCUAGGUCAACGGGUG [Fam2.2 aminoacylation ribozyme variant],20.5,2.13,3.36,1.89,3.59,3
AAGUUUGCUAAUAGUCGCUAA [Fam3.1 aminoacylation ribozyme variant],1.96,1.33,1.13,1.21,1.2,1.53
AAGAUCGCUAAUAGUCGCAAG [Fam3.1 aminoacylation ribozyme variant],3.04,1.86,1.79,1.51,2.08,1.96
CGACACUUCAAGAAAUCGGUC [Fam1B.1 aminoacylation ribozyme variant],3.41,1.62,1.25,1.26,1.24,2.88
UUUACCCUGGUCAUCGCGUGA [Fam2.1 aminoacylation ribozyme variant],128,7.82,18.9,9.57,16.9,19
CCACAUUUCAGGCAAUCGGUC [Fam1B.1 aminoacylation ribozyme variant],1.92,2.2,1.58,1.93,2.2,1.59
CCACACUUCAACCAAUCGGCC [Fam1B.1 aminoacylation ribozyme variant],4.99,2.12,1.55,2,1.72,5.45
AUUCACGUAGGCCAUCGGGUG [Fam2.2 aminoacylation ribozyme variant],48.1,3.71,4.29,5.3,4.12,5.37
GUACUUCAAACAAUCGGGCUG [Fam1A.1 aminoacylation ribozyme variant],21.1,3.02,2.47,2.8,2.67,14.6
CUACUUCAAACAAUUGUUCUG [Fam1A.1 aminoacylation ribozyme variant],0.673,0.619,0.633,0.636,0.611,0.367
AAGUUUGCUCAUAGUGGCAAG [Fam3.1 aminoacylation ribozyme variant],1.2,0.71,0.618,0.774,0.526,0.785
ACGUUUGCUAAUAGUGGCAAG [Fam3.1 aminoacylation ribozyme variant],0.738,0.853,0.75,0.741,0.804,0.59
CUAAUUCAACCAAUCGGUCUG [Fam1A.1 aminoacylation ribozyme variant],2.11,0.66,0.63,0.741,0.676,1.19
AUUACCCUGGUCACCUAGUGA [Fam2.1 aminoacylation ribozyme variant],25.9,2.12,4.99,2.49,4.95,5.72
UUACUUCAAACAAUCUGUCUG [Fam1A.1 aminoacylation ribozyme variant],3.15,1.45,1.42,1.35,1.38,2.09
CUACCUCAAACAAUCGGUCUA [Fam1A.1 aminoacylation ribozyme variant],1.45,1.01,1.16,0.885,0.89,0.934
ACUACCCUGGUGAUCGAGUGA [Fam2.1 aminoacylation ribozyme variant],28,4.03,6.46,3.6,7.61,9.48
CCACGCUUCAAGCAAUAGGUC [Fam1B.1 aminoacylation ribozyme variant],0.752,0.51,0.597,0.577,0.475,0.367
AUUACCCUGGUCAAGGAGUGA [Fam2.1 aminoacylation ribozyme variant],3.96,1.94,3.47,2.04,2.87,3.32
CCACACUUCACGAAAUCGGUC [Fam1B.1 aminoacylation ribozyme variant],0.814,0.987,1.07,1.09,1.16,1.02
AUUCACAUAGCUCAUCGGGUG [Fam2.2 aminoacylation ribozyme variant],12.6,2,1.91,2.38,2.36,2.34
AUUCUCCUAGGUCAUCGAGUG [Fam2.2 aminoacylation ribozyme variant],6.65,3.62,5.07,3.77,6.3,3.73
AUUCACCAAGGUCAUCGGGUU [Fam2.2 aminoacylation ribozyme variant],17.2,2.42,2.43,2.59,2.21,4.16
AUUCACCUAGGACAUCCGGUG [Fam2.2 aminoacylation ribozyme variant],31,7.62,5.98,6.22,6,4.47
